The test relates to PPIs identified as affected by the SH3 domain deletions. The test can be described thus: Liquid DHFR-PCA low-throughput validation of PPIs affected by SH3 deletion (Fig. S1D-E). It counts as cell-based, Saccharomyces cerevisiae. The settings on record: label = prey, liquid DHFR-PCA, prey _1 = lost, _2 = gained in screen. Here is the method: Liquid DHFR-PCA low-throughput experiments were performed to validate the PPIs identified as affected by the SH3 domain deletions in the high-throughput solid DHFR-PCA screen (256 PPIs weaker or lost and 116 PPIs stronger or gained following domain deletions). Mating and the diploid selection were performed as described for the large-scale experiment, with the exception that the plates were in 384 formats. Following the second diploid selection, diploid cells were inoculated in a 96 v-shaped well plate using a robotically manipulated 96 pin tool in a synthetic complete medium with MSG at pH 6.0 with NAT and HPH. After 48 h of growth, optical density (OD) was read using a TECAN Infinite F200 Pro, and dilutions to 1 OD in sterile nanopure water were prepared. Cells were then diluted to 0.1 OD by combining 25 µl of cell suspension at OD = 1 and 225 µl of PCA selection media without agar in a 96-wells plate. Plates were incubated at 30 °C in a TECAN Infinite M Nano and OD was monitored each 15 min for 72 h.

B1: YFR004W_2 (protein, UniProt P43588 1-306, looked up)
Ubiquitin carboxyl-terminal …: MERLQRLMMNSKVGSADTGRDDTKETVYISSIALLKMLKHGRAGVPMEVMGLMLGEFVDDYTVNVVDVFAMPQSGTGVSVEAVDDVFQAKMMDMLKQTGRDQMVVGWYHSHPGFGCWLSSVDVNTQKSFEQLNSRAVAVVVDPIQSVKGKVVIDAFRLIDTGALINNLEPRQTTSNTGLLNKANIQALIHGLNRHYYSLNIDYHKTAKETKMLMNLHKEQWQSGLKMYDYEEKEESNLAATKSMVKIAEQYSKRIEEEKELTEEELKTRYVGRQDPKKHLSETADETLENNIVSVLTAGVNSVAIK
In the case of B1, the “Ratio (Deletedscore / WTscore)” value (bait ABP1) is 1.111; the “Ratio (Deletedscore / WTscore)” value (bait LSB3) came out at 1.521; the “Ratio (Deletedscore / WTscore)” value (bait MYO3) was 1.308; the “Ratio (Deletedscore / WTscore)” value (bait MYO5) stood at 1.194; the “Ratio (Deletedscore / WTscore)” value (bait RVS167) turned out to be 1.454.

B2: YLR191W_2 (protein, UniProt P80667 1-386, looked up)
Peroxisomal membrane protein …: MSSTAVPRPKPWETSASLEEPQRNAQSLSAMMTSNQQDSRPTEESNNSNSASESAPEVLPRPAALNSSGTYGESNTIPGIYGNSNYGIPYDNNPYSMNSIYGNSIGRYGYGGSYYGNNYGSFYGGGYGAGAGYGMNNGSGLGESTKATFQLIESLIGAVTGFAQMLESTYMATHNSFFTMISVAEQFGNLKEMLGSFFGIFAIMKFLKKILYRATKGRLGIPPKNFAESEGSKNKLIEDFQKFNDSGTINSNEKATRRKISWKPLLFFLMAVFGFPYLLNKFITKLQTSGTIRASQGNGSEPIDPSKLEFARALYDFVPENPEMEVALKKGDLMAILSKKDPLGRDSDWWKVRTKNGNIGYIPYNYIEIIKRRKKIEHVDDETRTH
Take B2: the “Ratio (Deletedscore / WTscore)” value (bait BEM1-1) was found to be 1.873 and the “Ratio (Deletedscore / WTscore)” value (bait) was found to be 1.174.

B3: YKL117W_2 (protein, UniProt P28707 2-216, looked up)
Co-chaperone protein SBA1: SDKVINPQVAWAQRSSTTDPERNYVLITVSIADCDAPELTIKPSYIELKAQSKPHVGDENVHHYQLHIDLYKEIIPEKTMHKVANGQHYFLKLYKKDLESEYWPRLTKEKVKYPYIKTDFDKWVDEDEQDEVEAEGNDAAQGMDFSQMMGGAGGAGGAGGMDFSQMMGGAGGAGSPDMAQLQQLLAQSGGNLDMGDFKENDEEDEEEEIEPEVKA
B3: the “Ratio (Deletedscore / WTscore)” value was 1.066 (bait ABP1), 1.596 (bait BZZ1-2), 1.715 (bait LSB3) and 1.422 (bait RVS167).

B4: YNL094W_1 (protein, UniProt P53933 1-587, looked up)
Phosphatidate phosphatase APP1: MNSQGYDESSSSTAATSGPTSGDPRMGKKQRFMNLIRTTKDVYIPNLTSSISQKTMDGIRSTTNSFEGYNDLPMELPHNTTITYFPTYTTTNLVDPDGLSAPRKDFETTVRCAVSYPGNPTSRRNRWLLSLCKQYLRTGTAEADVAPVVPPHLEEDSGDLNDSQSSIESSLSSKSENRYSHMGIQEEDVLNERIQGFLSKKVPNTPVVVDLLPKDKLRGDTASFFGTTDSYGNLLIKAETDFLPSKINITLDTPIEGHADPISETFPANYVSPYGIGLISDIDDTIKHTGVTGDRRSMFRNVFIHDVQSWVIDGVPLWYKTLHDVADVDFFYVSNSPIQTFTLLKQYICANFPPGPIFLKQYSGNFFSTIMTSSANRKIQPIANILKDFPKKKFILVGDSGEHDLEAYTTTALQFPNQILAIYIRCCSNSMSDVPSHDEEVMNEVNNIIELQQRPMQMTKSTVRTRRRPPPPPIPSTQKPSLTEEQTESIRMSRRNKDENNAKRVAPPPLPNRQLPNLDANTYYVPSSQNDYGMYGAFMDKKADEWKRRVMDSIQKLSNQDTTLMFFSDPALSLEDSIRRIREKYSN
For the molecule B4, the “Ratio (Deletedscore / WTscore)” value (bait ABP1) is reported as 0.4956.

B5: YCL024W_2 (protein, UniProt P25389 1-1037, looked up)
Probable …: MTVANTETHSAAKPSSTIGPWKLGETLGFGSTGKVQLAQHERTGHRTAVKVISKSIFNNNGNHSNDDSVLPYNIEREIVIMKLLSHPNVLSLYDVWETNNNLYLILEYAEKGELFNLLVDHGPLPEREAINCFRQIIIGISYCHALGIVHRDLKPENLLLDSFYNIKIADFGMAALQTDADLLETSCGSPHYAAPEIVSGLPYEGFASDVWSCGVILFALLTGRLPFDEENGNVRDLLLKVQKGQFEMPNDTEISRDAQDLIGKILVVDPRQRIKIRDILSHPLLKKYQTIKDSKSIKDLPRENTYLYPLADSNNHTSASIDDSILQNLVVLWHGRHADDIVSKLKENGTNKEKILYALLYRFKLDSVRGSNKKNRNKIKKTKKNKRSSTLSSSSSLLLNNRSIQSTPRRRTSKRHSREFSSSRKRSSFLLSSNPTDSSPIPLRSSKRITHINVASANTQATPSGVPNPHKRNSKKRSSKRLSYMPNTKRSSLTSKSLSNFTNLIDDDDWEYIEKDAKRTSSNFATLIDEIFEPEKFELAKREKAELQRKVQEAKRQSVNAQKINEDEFGSEVSDGMKELKKINDKVSSPLINYEFSQQELLQDIDTLLTNRYQLSSYTRPISRLDPGLTPVTETLPNNLKEKTALLQDTEKKIIETIRRSKFLGSLLNVRGGLSPGKSELAPIEESPIVSTTPLIYNDRMEPRRISDVEVPHFTRKSKHFTTANNRRSVLSLYAKDSIKDLNEFLIKEDPDLPPQGSTDNESRSEDPEIAESITDSRNIQYDEDDSKDGDNVNNDNILSDFPQGVGISQEYDMKDKNPNQSPISKSAEPTLVVKLPSLSSFQGKNASGLGLYQREPSKVTLPSLTSNNSSVGENIEDGAEKGTESEKIAASLSDDDLKEDNDKKDNDTVNAPTTVKKPPNSVLLKKFSKGKILELEIHAKIPEKRLYEGLHKLLEGWKQYGLKNLVFNITNMIITGKLVNDSILFLRSTLFEIMVLPNGDGRSLIKFNKKTGSTKTLTKLATEIQIILQKEGVLDK
B5: under “bait NBP2”, the “Ratio (Deletedscore / WTscore)” value was determined as 1.51.

B6: YGR229C_2 (protein, UniProt P32566 1-505, looked up)
Cell wall assembly regulator …: MDLFKRKVKEWVYSLSTDDHYAEYNPDETPTFNMGKRLNSNNGQVNPSQMHLNSVDEEMSMGFQNGVPSNEDINIDEFTSTESNDGVSETLLAWRHIDFWTSEHNPDLNATLSDPCTQNDITHAEEDLEVSFPNPVKASFKIHDGQEDLESMTGTSGLFYGFQLMTLDQVVAMTQAWRNVAKNLNKRSQQGLSHVTSTGSSSSMERLNGNKFKLPNIPDQKSIPPNAVQPVYAHPAWIPLITDNAGNHIGVDLAPGPNGKYAQIITFGRDFDTKFVIAENWGEFLLSFANDLEAGNWYLVDDNDDYFSGDGELVFRDKKSNGPIQDYFEVLKRRTWIKYQENLRSQQQKSQPDTSLQEQKYVPASQKKVAAEQPSTLNAESIKGEDSGSADVQSVQDHESVKIVKTEPSEAETTTVNTESLGQAEHEIKADNVDIKQESERKEDEKQPKVEEKEHVENEHVTESAKKDDDVNKQTEEMNKKEENEIRSDDAKVEEAREEFENIAL
Take B6: the “Ratio (Deletedscore / WTscore)” value is, setting by setting: (bait BZZ1-1) 1.034; (bait BZZ1-2) 1.734; (bait LSB1) 1.08; (bait PIN3) 1.619.

B7: YGR037C_2 (protein, UniProt P31787 1-87, looked up)
Acyl-CoA-binding protein: MVSQLFEEKAKAVNELPTKPSTDELLELYALYKQATVGDNDKEKPGIFNMKDRYKWEAWENLKGKSQEDAEKEYIALVDQLIAKYSS
In the case of B7, the “Ratio (Deletedscore / WTscore)” value is, setting by setting: (bait LSB3) 1.675; (bait MYO3) 1.004; (bait MYO5) 0.9102.

B8: YGL099W_1 (protein, UniProt P53145 1-640, looked up)
Large subunit GTPase 1: MPPKEAPKKWKAPKGPKPTHRKNKNKLELGRAIKYARQKENAIEYLPDGEMRFTTDKHEANWVKLRSVTQESALDEFLSTAALADKDFTADRHSNVKIIRMDSGNDSATSQGFSMTNEQRGNLNAKQRALAKDLIVPRRPEWNEGMSKFQLDRQEKEAFLEWRRKLAHLQESNEDLLLTPFERNIEVWKQLWRVVERSDLVVQIVDARNPLLFRSVDLERYVKESDDRKANLLLVNKADLLTKKQRIAWAKYFISKNISFTFYSALRANQLLEKQKEMGEDYREQDFEEADKEGFDADEKVMEKVKILSIDQLEELFLSKAPNEPLLPPLPGQPPLINIGLVGYPNVGKSSTINSLVGAKKVSVSSTPGKTKHFQTIKLSDSVMLCDCPGLVFPNFAYNKGELVCNGVLPIDQLRDYIGPAGLVAERIPKYYIEAIYGIHIQTKSRDEGGNGDIPTAQELLVAYARARGYMTQGYGSADEPRASRYILKDYVNGKLLYVNPPPHLEDDTPYTREECEEFNKDLYVFDRLPDTRKEQVQNAAKAKGIDIVDLARDLNQLTFSAHTGGDTQKEAKSVTHGGKQAALYNAAEDLDRDFFKMNNVEGRLSTPFHKVQNSSAGKRHNKKNKSKNAKSKVFSIENN
Consider B8, for which the “Ratio (Deletedscore / WTscore)” value (bait ABP1) is 1.003.

B9: YOR284W_1 (protein, UniProt Q12134 1-243, looked up)
Protein HUA2: MQQTKFGKMYLDHDSVVEYSEDEIVEADRITLGYKKRLSMIENQMRHLLEDFSLDVQQIEPILADLQKYYDAFLQLLQKRNKSLQCKRSTHQPVPSPMNSQTSTNAKVNLSGKLMKFQLNSVQKFDEENILRILQNKIEFEHYFQIDKGKKQKVLLLAVYQCLNGPTRLHKVLNIEGIIHNNSIRTILGKQVSSSKWTVFLYDVKLVLLAHRQDVPNLETSKMIVRYGDLFPCALYFKDHTAY
Take B9: the “Ratio (Deletedscore / WTscore)” value (bait ABP1) is 0.3885.

The values are drawn from paper PMC7954794, “Protein context shapes the specificity of SH3 domain-mediated interactions in vivo” (Nature Communications, 2021).
